According to article PMC5720770:

Biological target: T1, OxyR (Pseudomonas aeruginosa (PAO1?)) (UniProt Q9HTL4)
T1 sequence: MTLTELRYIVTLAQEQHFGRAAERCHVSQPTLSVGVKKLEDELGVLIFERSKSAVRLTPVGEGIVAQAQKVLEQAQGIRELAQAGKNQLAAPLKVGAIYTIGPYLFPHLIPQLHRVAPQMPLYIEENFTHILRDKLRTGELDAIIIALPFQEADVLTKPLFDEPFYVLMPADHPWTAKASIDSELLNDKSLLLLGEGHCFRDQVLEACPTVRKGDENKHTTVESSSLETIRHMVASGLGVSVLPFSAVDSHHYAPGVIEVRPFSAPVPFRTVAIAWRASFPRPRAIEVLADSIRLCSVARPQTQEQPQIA
Test: DNase I footprinting
Conditions: Footprint: 20 mM Tris-HCl pH 7.0, 50 mM KCl, 1 mM EDTA, 5% glycerol, 50 ug/ml BSA, 5 ug/ml calf thymus DNA, 0.5 ug/ml poly(dI-dC), 25 C, 15 min; EMSA: Roche …

Sequence: CAGGCGCTCGGCGGCGCGGGTGAAACTGCCTTCGCGGGCGACGGCGTCGAAGGCGCGGAGCTGGAAGAGATTCATGGTATCGGCCTGGCTTATGGCTGGCATCGGAACAAACAATTTGAACGATAGTAGCGCGGCGCTCACCTTATGTCTCCAGGCTTCCCTGGAACGCCGGCGCGGAACGACCGCCCGGACCGCGAAG (double strand) [phnW promoter 199-bp fragment (footprint)]
- binding: binds
